The values below come from patent publication US20030186334A1, “KTS-disintegrins” (Temple University - Of the Commonwealth System of Higher …, priority 2001, published 2003).

For this experiment, the target named is human α1β1 integrin (human), P56199. The experiment is described as follows: inhibition of adhesion of α1K562 cells to immobilised collagen IV.
Sequence of human α1β1 integrin (human), P56199 (P56199 29-1179, chain 1 of 2): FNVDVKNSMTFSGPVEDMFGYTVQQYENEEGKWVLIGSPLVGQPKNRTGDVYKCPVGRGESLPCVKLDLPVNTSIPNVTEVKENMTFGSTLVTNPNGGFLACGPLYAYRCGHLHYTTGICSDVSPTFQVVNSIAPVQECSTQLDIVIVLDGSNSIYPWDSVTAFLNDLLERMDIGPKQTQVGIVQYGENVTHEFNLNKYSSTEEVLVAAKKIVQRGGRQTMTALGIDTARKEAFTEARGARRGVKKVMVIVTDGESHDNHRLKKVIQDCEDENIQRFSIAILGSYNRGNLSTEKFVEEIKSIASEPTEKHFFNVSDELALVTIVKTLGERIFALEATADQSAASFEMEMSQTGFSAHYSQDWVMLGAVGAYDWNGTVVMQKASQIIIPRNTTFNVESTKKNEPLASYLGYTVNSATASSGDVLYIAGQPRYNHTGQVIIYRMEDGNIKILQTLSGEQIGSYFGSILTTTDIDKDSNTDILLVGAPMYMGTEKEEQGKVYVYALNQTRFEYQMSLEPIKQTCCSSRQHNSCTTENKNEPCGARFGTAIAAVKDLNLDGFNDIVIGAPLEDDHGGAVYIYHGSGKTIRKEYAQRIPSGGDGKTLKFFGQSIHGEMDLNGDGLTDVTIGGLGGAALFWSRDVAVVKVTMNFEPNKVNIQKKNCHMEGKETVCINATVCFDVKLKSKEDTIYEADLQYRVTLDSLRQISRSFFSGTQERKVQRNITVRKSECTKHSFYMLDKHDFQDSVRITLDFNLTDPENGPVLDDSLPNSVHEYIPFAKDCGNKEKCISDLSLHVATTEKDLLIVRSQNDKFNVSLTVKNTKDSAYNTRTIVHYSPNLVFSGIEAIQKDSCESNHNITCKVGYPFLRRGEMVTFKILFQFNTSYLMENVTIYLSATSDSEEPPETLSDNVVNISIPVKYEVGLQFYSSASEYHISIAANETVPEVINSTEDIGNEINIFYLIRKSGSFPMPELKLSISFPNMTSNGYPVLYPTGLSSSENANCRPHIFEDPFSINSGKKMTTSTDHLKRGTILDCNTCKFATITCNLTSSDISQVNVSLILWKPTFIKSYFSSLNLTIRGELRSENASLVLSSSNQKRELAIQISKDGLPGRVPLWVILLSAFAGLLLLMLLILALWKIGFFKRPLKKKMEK
Sequence of human α1β1 integrin (human), P56199 (P05556 21-798, chain 2 of 2, further chain): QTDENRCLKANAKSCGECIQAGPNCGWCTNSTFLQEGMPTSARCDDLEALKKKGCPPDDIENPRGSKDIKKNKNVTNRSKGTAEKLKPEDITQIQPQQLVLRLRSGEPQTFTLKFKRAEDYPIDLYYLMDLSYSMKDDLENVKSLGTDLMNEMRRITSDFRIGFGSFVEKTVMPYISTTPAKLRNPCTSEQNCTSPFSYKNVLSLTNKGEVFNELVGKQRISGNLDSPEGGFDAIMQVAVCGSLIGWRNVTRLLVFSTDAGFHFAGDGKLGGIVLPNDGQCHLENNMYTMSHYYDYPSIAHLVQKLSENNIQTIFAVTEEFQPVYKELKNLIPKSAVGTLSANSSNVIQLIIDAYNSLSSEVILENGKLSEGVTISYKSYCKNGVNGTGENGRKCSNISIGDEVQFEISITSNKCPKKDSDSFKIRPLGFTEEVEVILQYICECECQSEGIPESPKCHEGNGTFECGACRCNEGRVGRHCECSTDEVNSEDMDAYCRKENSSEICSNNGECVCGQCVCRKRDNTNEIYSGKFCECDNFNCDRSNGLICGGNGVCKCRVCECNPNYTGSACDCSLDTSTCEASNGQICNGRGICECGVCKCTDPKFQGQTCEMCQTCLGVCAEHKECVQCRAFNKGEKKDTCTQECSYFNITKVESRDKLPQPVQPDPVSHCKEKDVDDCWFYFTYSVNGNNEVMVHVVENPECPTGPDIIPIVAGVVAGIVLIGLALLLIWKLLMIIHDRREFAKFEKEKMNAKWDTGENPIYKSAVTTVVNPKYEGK

One may read the IC50 as the concentration at which inhibition is half-maximal. Molecule TSLTS (modifications not checked) [synthetic peptide TSLTS (SEQ ID NO: 6)] registered an IC50 of 3.5 mM.
